Patent publication US8620595B2, “Methods for determining the retention of peptides in reverse phase chromatography using linear solvent strength theory” (University of Manitoba, priority 2010, dated 2013)

Test: Determination of S from retention time shift Δ relative to P3 at two gradient slopes, nano-RP-HPLC MS of spiked tryptic digest
Assay type: physicochemical
Settings: experimental S value, LC-MS runs of model peptide mixture
Method: Proteins and protein digestion. Tryptic digests of two different protein mixtures were utilized. The “test peptide mixture” contained human proteins: albumin, transferrin, fibrinogen. The “model peptide mixture” contained bovine proteins: albumin, transferrin, fibrinogen, catalase. Equimolar mixtures of the proteins were prepared, reduced with DTT, alkylated with iodoacetamide and digested with sequencing-grade modified trypsin (Promega, Madison, Wis.). Prior to nano-LC MS/MS analysis, mixtures were diluted with buffer A (0.1% formic acid in water) and spiked with the 6 standard peptides P1-P6^24 for test mixture and the set of 11 model peptides (described elsewhere^23) for a model mixture. All dilutions were performed to provide an injection of ˜100 fmole of each component into the nanoRP-HPLC MS system.
Chromatography. All chromatographic experiments were conducted at a controlled temperature of 22-23° C. For isocratic measurement of the slope values, a micro-Agilent 1100 Series system (Agilent Technologies, Wilmington, Del.), was used with a 1 mm×100 mm 5 μm Luna C18(2) (Phenomenex, Torrance, Calif.) column and a UV detector operated at 214 nm. Both eluents A (water) and B (acetonitrile) contained 0.1% formic acid as ion-pairing modifier. Stock solutions of the 11 standard peptides (˜1 mg/ml) were prepared by dissolving each peptide in 1 ml of 0.1% FA in water or a 20% acetonitrile solution. Ten microliters of sample was injected. Individual peptides were diluted to provide ˜0.5-1 μg injection of each component using a 10 μl loop. The dead volume of the column and connecting tubings was determined by injecting a non-retained compound (water) and measuring the elution time of the negative peak at a 150 μL/min flow rate. Retention factors for isocratic elution were calculated using the formula: k=(tR−t0)/t0c; where tR is the retention time, t0 is the system (column and tubings) dead time, and t0c is the column dead time. Additional details of measuring S-values via constructing log k vs. φ plots are provided elsewhere.^24 The nano-LC MS/MS experiments were conducted using splitless Tempo LC system (Eksigent, Dublin, Calif.) with 20 μL sample injection via a 300 μm×5 mm PepMap100 (Dionex, Sunnyvale, Calif.) trap-column and a 100 μm×200 mm analytical column packed with 5 μm Luna C18(2) (Phenomenex, Torrance, Calif.). Tryptic digests of the mixtures were spiked with calibrating peptides (see Table 1) as described above, injected on the trap-column using buffer A as a carrier and separated using 0.1875, 0.375 and 0.75 percent acetonitrile per minute linear gradients starting from 0.5% acetonitrile at 500 nL/min flow rate. The composition of both eluents A and B was identical to one described above for normal-flow system. Gradient programs consisted of a 0.5-40% linear increase of buffer B in 213.2, 106.6 and 53.3 minutes, respectively. After each run the gradient columns were washed with 80% B for 3 minutes and equilibrated with the starting A:B ratio for 18 minutes.
Mass spectrometry. A QStar Elite mass spectrometer (Applied Biosystems, Foster City, Calif.) equipped with a MicrolonSpray II source was used in standard MS/MS information dependent acquisition (IDA) mode for LC-ESI analyses. Protein identification was performed using Protein Pilot 3.0 (Applied Biosystems, Foster City, Calif.) with a restricted database containing target protein sequences and the sequences of standard peptides. Retention times of identified species (peak maxima) were assigned manually.
These two ways of measurement have been combined to provide a highly accurate and fast way of determining S for an extensive sets of peptides (see FIG. 3). First, precise isocratic measurement of S is performed in normal flow conditions with UV detection for a set of synthetic “S-calibrating” peptides. […]

Substance	Slope (experimental)
GSNFQLDQLQGR	30.314
GYLAVAVVK	27.811
HLVDEPQNLIK	35.894
IEILR	24.216
IETMR	37.108
IHLISTQSTIPYVLR	35.386
IIPLNR	28.596
ILESGPFVSCVK	29.323
ILESGPFVSCVKK	34.299
ILNKQQDDFGK	40.011
IPSKVDSALYLGSR	35.773
IQALLDK	26.395
IQALLDKYNEEKPK	40.311
IQALLDKYNEEKPKN	40.038
IQLEDWNGR	27.849
IRPYFPEQ	28.791
ISQLTNMGPTK	33.29
IVNLR	29.724
KDMDKVETFLR	34.768
KEEAPSLRPVPPPISGGGYR	42.646
KKEEAPSLRPVPPPISGGGYR	44.873
KLGAPSITCVR	37.615
KNWIQYK	31.919

Substance	Slope (experimental)
KPVTDAENCHLAR	48.023
KPVTEAQSCHLAVAPNHAVVSR	49.479
KTYDSYLGDDYVR	35.968
KVIEQVQR	43.582
KVPQVSTPTLVEVSR	37.64
KYAAELHLVHWNTK	39.205
LAGGGSASSSAHAAAFR	44.118
LAGGSASSADAAFR	34.509
LAGGSASSAHAAFR	42.588
LAGSASADAFR	32.092
LAGSASAHAFR	40.64
LAHEDPDYGLR	36.832
LASAADFR	29.663
LASAAHFR	38.571
LAVAAHFR	34.392
LCALCAGDDQGLDK	33.517
LCENIAGHLK	37.285
LCQLCAGK	34.229
LCVLHEK	34.16
LDGSLDFK	25.689
LESDVSTQMEYCR	35.968
LFAYPDTHR	31.897
LGAPSITCVR	32.708

Substance	Slope (experimental)
LGEYGFQNALIVR	29.764
LGPNYLQIPVNCPYR	32.953
LKECCDKPLLEK	42.82
LKPDPNTLCDEFK	36.757
LKPDPNTLCDEFKADEK	41.815
LLEACTFHKP	36.237
LLGGGSLSSSLDAAAFR	32.333
LLGGGSLSSSLHAAAFR	35.968
LLGGSLSSLDAAFR	30.604
LLGGSLSSLHAAFR	34.021
LLGSLSLDAFR	28.402
LLGSLSLHAFR	31.94
LLHAAHFR	39.794
LLHLAHFR	33.837
LLHLLHFR	31.51
LLIEMEDWK	26.865
LLIEMEDWKGDK	30.791
LLLGGDFR	22.643
LLLLDFR	23.297
LLLLLDFR	22.983
LLSAADFR	25.969
LLSAAHFR	32.998
LLSLADFR	25.239

Substance	Slope (experimental)
LLSLAHFR	29.303
LLSLLDFR	24.464
LLSLLHFR	28.039
LLVAAHFR	31.212
LLVLAHFR	28.115
LLVLLHFR	27.548
LNELR	32.443
LNSLTVGPR	30.791
LQDTLVR	29.045
LRDSLFNYQK	31.66
LRPVAAEIYGTK	34.815
LSQKFPK	38.913
LVNELTEFAK	27.906
LVTDLTK	28.077
LYKELPDPQESIQR	39.098
MEDEAESLEDLGFK	29.603
MKGLIDEVDQDFTSR	33.2
MSTITGPVPR	32.509
NECFLSHKDDSPDLPK	41.14
NFSDVHPEYGSR	37.948
NIVELMR	24.282
NLLFNDNTECLAK	28.81
NLNREDFR	36.957

Same assay, conditions: experimental S, LC-MS runs of model peptide mixture, formic acid

Substance	Slope (experimental)
GTGKECVPNSNER	48.911
HMDGYGSHTFK	41.758
HQLYIDETVK	34.369
HSTVFDNLPNPEDR	34.439
HSTVFDNLPNPEDRK	36.807
INLLQK	24.664
KANEGLTWNSLK	31.085
KANEGLTWNSLKDK	35.507
KENFEVLCK	27.567
KFWGK	27.604
KGSNFQLDQLQGR	33.883
KNYELLCGDNTR	33.631
KPPDADGCLHADPDLGVLCPTGCK	40.448
KQTALVELLK	27.642
KYCGVPGEYWLGNDR	33.065
LAGGGSASSSADAAAFR	35.894
LAIGEGQQHQLGGAK	39.74
LGGGGGGDFR	31.043
LLCLDGTR	25.325
LLGGGGDFR	25.846
MVLETFGGDGHAR	31.001
NCPDKFCLFK	28.518

Same assay, conditions: model peptide mixture (tryptic digest of bovine proteins), 0.75 and 0.1875% acetonitrile per minute gradients, formic acid, S from Δ vs. S curve of S-calibrating peptides

Substance	experimental S-value
KPVTEAQSCHLAVAPNHAWSR (KPVTEAQSCHLAVAPNHAVVSR) [tryptic peptide of the model peptide mixture, 5 positively charged groups]	49.5
